Test: Directed evolution of UGT76G1 round 1, variant lysates, Rebaudioside D to Rebaudioside M conversion and initial rate
Format: biochemical
Method: Lysis was performed by addition of Bugbuster® Master mix (Novagen®) to the thawed cells and the lysate was recovered by centrifugation. Activity tests were performed with 100 μL of fresh lysate that was added to a solution of Rebaudioside D (final concentration 0.5 mM), MgCl2 (final concentration 3 mM) and UDP-Glucose (final concentration 2.5 mM) in 50 mM phosphate buffer pH 7.2.
The reaction was allowed to run at 30° C. and samples were taken after 2, 4, 7 and 24 h. to determine conversion and initial rate by HPLC (CAD detection) using the analytical method that was described above for the transformation of Rebaudioside D to Rebaudioside M. The results are depicted in the following table.

B1: UGT76G1var94: UGT76G1 variant containing mutations Q266E_P272A_R334K_G348P_L379G (protein, UniProt Q6VAB4 1-458, looked up, variant Q266E P272A R334K G348P L379G)
UDP-glycosyltransferase 76G1: MENKTETTVRRRRRIILFPVPFQGHINPILQLANVLYSKGFSITIFHTNFNKPKTSNYPHFTFRFILDNDPQDERISNLPTHGPLAGMRIPIINEHGADELRRELELLMLASEEDEEVSCLITDALWYFAQSVADSLNLRRLVLMTSSLFNFHAHVSLPQFDELGYLDPDDKTRLEEQASGFPMLKVKDIKSAYSNWQILKEILGKMIKQTKASSGVIWNSFKELEESELETVIREIPAPSFLIPLPKHLTASSSSLLDHDRTVFEWLDQQAPSSVLYVSFGSTSEVDEKDFLEIARGLVDSKQSFLWVVRPGFVKGSTWVEPLPDGFLGERGKIVKWVPQQEVLAHPAIGAFWTHSGWNSTLESVCEGVPMIFSDFGGDQPLNARYMSDVLKVGVYLENGWERGEIANAIRRVMVDEEGEYIRQNARVLKQKADVSLMKGGSSYESLESLVSYISSL
- activity ranking in first round of directed evolution, Rebaudioside D to Rebaudioside M: most active clone
